# Experimental data from the supplement of paper PMC9732359.
# ± gives the uncertainty stated by the source.
# Assay: protein stability index of a GFP-peptide fusion (yeast GPS) (PSI 1-4); higher = more stable; sorted into four equal gates, so the index is relative within each strain
# Details: ubr1∆
# How it was run: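 Yeast carrying a pooled library were grown to mid-log phase in leucine-free medium. Each library plasmid expresses Cherry and has a tiled 17-residue yeast protein peptide fused downstream of GFP. Cells were sorted into four equal gates by GFP/Cherry ratio, and plasmids from each gate were PCR-amplified, Illumina-sequenced and assigned to strains by barcode. Summing, across gates, the read frequency times the gate number gave each peptide's protein stability index.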
row,Sequence,protein stability index
1,KIVVVRAEALNISGEFF [RPL16B],3 ± 0.089
2,KKEANLFPEQQNKEIKA [RPL6A],3.3 ± 0.093
3,KKEEELGVKSRLLEKSE [SNF2],3.04 ± 0.29
4,KKFLRVRIFTKIESEDD [SRB4],1.11 ± 0.083
5,KKHLKRLAAPHHWLLDK [RPS4A],3.01 ± 0.072
6,KKICNHPFVFEEVEDQI [SNF2],2.86 ± 0.045
7,KKIKGKSIQDIVGLATL [SRP21],3.116 ± 0.031
8,KKIREIYRYDEMSNKVL [BRR2],3.08 ± 0.045
9,KKITLQLLDTSNQRFKD [SIN4],2.88 ± 0.039
10,KKKRFEIKKWTAVAFWS [HRT1],2.27 ± 0.1
11,KKLPRKTHRGLRKVACI [RPL3],3.23 ± 0.058
12,KKLVWPLHLIFAQPVAD [SSN2],1.17 ± 0.062
13,KKMMNTLVHTRVKIANT [SSN2],2.78 ± 0.033
14,KKNKRALPNIENDIIKL [BRR2],3.34 ± 0.037
15,KKNSSRPMPPIRGPKRR [SMD3],2.81 ± 0.036
16,KKNVWRSINNLIQEHDS [BRN1],2.57 ± 0.041
17,KKRKIHNGREGSIEEPE [MCD1],3.27 ± 0.042
18,KKRLMDIDDELNELETL [SMC2],3.37 ± 0.035
19,KKSVNKLDKQINMADRS [POP6],2.83 ± 0.054
20,KKVVIVKPHDEGSKSHP [RPL27A],3.04 ± 0.057
21,KLALGIALEGYRLDIIE [RPN2],2.19 ± 0.083
22,KLEPKEIVRDILHTKES [SIR4],3.04 ± 0.086
23,KLKQLLDESSEQKNTAK [YIL149C/MLP2],2.99 ± 0.065
24,KLLFQELMAMNITPRLY [RPB2],1.43 ± 0.048
25,KLLIQIDELSNGQRSNS [SMC1],3.11 ± 0.16
26,KLLQLAGVEDVYTQSNG [RPS2],3.13 ± 0.086

row,Sequence,protein stability index
1,KLQFETDRLSTTQRRYE [SMC1],3.12 ± 0.083
2,KLQSQSLHTKNVFGTLQ [YLR018C/POM34],2.94 ± 0.11
3,KLSISNAASQQPTPRSA [GAL11],2.91 ± 0.049
4,KLSKILPRYQELTKEEA [SMC3],3.35 ± 0.1
5,KLTDEQSSLDVAGLEDK [SIR3],3.1 ± 0.062
6,KLTSEETVFNYRLMIKR [GRR1],2.82 ± 0.095
7,KLVEIIWNDVVYGEGTS [YJL039C/NUP192],3.35 ± 0.058
8,KLVLNISVGESGDRLTR [RPL11A],1.08 ± 0.14
9,KLWFQLSESLTKFFDDA [RPN9],3.17 ± 0.097
10,KLYQTEPSGIYSSWSAQ [PRE6],1.46 ± 0.054
11,KMELVYVSDSDDSSSDN [SIR4],2.59 ± 0.067
12,KMFIQRILAMCVKNHGQ [YCS4],1.92 ± 0.057
13,KMIDFATLSKLKKKYQI [SIR3],3.47 ± 0.048
14,KMNNKPERFMVFQLPTR [RPC53],2.83 ± 0.058
15,KMSVTCNAQPITRSVMR [BRR2],2.5 ± 0.037
16,KNAQYHLLVKQGDGLLT [RPN7],1.22 ± 0.08
17,KNATEELLRLANEQLKL [CSN12],2.8 ± 0.094
18,KNDKLIKIEDFVDDMLR [SNF5],2.68 ± 0.07
19,KNDNIKKSVNKLDKQIN [POP6],2.78 ± 0.046
20,KNFIESESVGAFLSFLA [YJL039C/NUP192],2.85 ± 0.045
21,KNFKGIEEIEYNVKNII [PCI8],3.05 ± 0.063
22,KNGNEYNEFLYSKAGRE [QCR8],2.75 ± 0.05
23,KNKGLVVSPYDYNHKRV [DIB1],3.35 ± 0.17
24,KNLISRINTLPQVQLPV [ECM29],2.83 ± 0.17
25,KNLKDTASVEKAEFSKE [YIL149C/MLP2],3.24 ± 0.081
26,KNLKPQEQLKNVKNDVS [YIL149C/MLP2],3.01 ± 0.096

row,Sequence,protein stability index
1,KNSTSSMTAVPKPLKFL [RPN1],2.15 ± 0.069
2,KNTEEGKALVHHYEECA [QCR6],3.38 ± 0.052
3,KNTELSYDFLPLSNIKA [RPN12],3.09 ± 0.068
4,KNVKHSGNIQLDEIIEI [RPL12A],3.22 ± 0.065
5,KNVNIEDITEPKPDKPS [ESC2],2.94 ± 0.13
6,KNVRTRIKLATTSERVS [RRI1],2.36 ± 0.074
7,KNYLKNYILNFKQSNSE [CDC53],1.89 ± 0.037
8,KPAFSFGAKSDEKKDSD [YJL041W/NSP1],3.46 ± 0.056
9,KPAFSFGINTNTTKTAD [YLR335W/NUP2],3.46 ± 0.064
10,KPALGSLGSSSTTASGT [YGR119C/NUP57],3.06 ± 0.1
11,KPMNKGQHKNNTSLNIN [SWP82],2.98 ± 0.059
12,KPNLNYFKSILLNKNTG [SWI1],1.75 ± 0.038
13,KPSNGKGSRKSSKAATP [SNF12],3.239 ± 0.027
14,KPTSPFIDSICKLFDKI [SRB8],1.41 ± 0.034
15,KPWFATVNGQARDLATM [FAS1],3.05 ± 0.064
16,KQKSWVPSYIHVEKERA [YIL149C/MLP2],2 ± 0.046
17,KQLVEKAELRLAIADSP [ECM29],3.29 ± 0.16
18,KQTAAYRTPGSSGVLSS [SSN2],2.88 ± 0.045
19,KQYDNRITKSNEKSQAE [LRP1],3.02 ± 0.037
20,KRCVGVILGDANSSTIR [RPN8],2.94 ± 0.039
21,KREASRGFFDILSLATE [MCD1],3.11 ± 0.05
22,KREGKTRLLNIVMQLRK [ISW2],2.97 ± 0.057
23,KRHSYAQSSHIRAIRKV [RPS1A],2.446 ± 0.015
24,KRLSAALSKFLTHPKYL [YML103C/NUP188],2.91 ± 0.065
25,KRRKLDLNNAVQKRDEV [SMC4],2.96 ± 0.079
26,KRSDLTGANSIYSVEKK [UBP6],3.16 ± 0.056

row,Sequence,protein stability index
1,KRSTVPLNDGFVDLVEH [YML103C/NUP188],2.69 ± 0.053
2,KSEFDDLSLNIHPIPSV [YMR129W/POM152],2.76 ± 0.032
3,KSIIGKLTAERANLRKY [POP1],2.6 ± 0.074
4,KSKEDMKQLKFFKPLDY [SNU114],3.29 ± 0.087
5,KSKKSWLNRLNNWLFGW [YMR153W/NUP53],2.94 ± 0.041
6,KSKTSTGKERSKKRKLN [SNM1],3.21 ± 0.09
7,KSLGLKLPLSVINVSAQ [RPS17A],1.37 ± 0.073
8,KSNSTGNISSSTVKKKD [REC8],3.02 ± 0.049
9,KSQEQREHSLQLFRTNK [PRP28],2.9 ± 0.076
10,KSSAFVIDIGASGCNVT [ARP7],2.55 ± 0.045
11,KSSILTVLQKNSLLLDS [YML103C/NUP188],2.36 ± 0.085
12,KSSNDTIEHAADITDGN [YCG1],3.3 ± 0.15
13,KSSVPGSAELRNSYPAS [RPN3],3.25 ± 0.095
14,KSVRILKNKAEYLKNCP [RPC40],3.15 ± 0.046
15,KSYASLLAQLNGTVNNN [RPT3],2.55 ± 0.12
16,KTADVKRQYVKQFLTKD [RPL20A],2.6 ± 0.048
17,KTAYSIYLSQNELTDAI [RPN1],2.08 ± 0.023
18,KTDLELLVERLKEDDSS [RPN1],3.18 ± 0.17
19,KTDPAGYYVGYKATATG [SCL1],3.25 ± 0.1
20,KTICNLLISDTESNELI [IRR1],2.68 ± 0.065
21,KTIEVTAEINCFMHLLV [RPN3],1.67 ± 0.19
22,KTITLEVESSDTIDNVK [RPS31],2.64 ± 0.086
23,KTITSGLKYALATGNWG [RPB2],2.31 ± 0.048
24,KTKWDRKPMGKRINFEK [POP1],3 ± 0.17
25,KTLCARAVANRTDATFI [RPT1],1.37 ± 0.18
